Laboratory results reported in the supplement of paper PMC12338614.
± gives the uncertainty stated by the source.

B1: library; numbered along this chain (parent)
chain: MEVVDPQQLGMFTEGELMSVGMDTFIHRIDSTEVIYQPRRKRAKLIGKYLMGDLLGEGSYGKVKEVLDSETLCRRAVKILKKKKLRRIPNGEANVKKEIQLLRRLRHKNVIQLVDVLYNEEKQKMYMVMEYCVCGMQEMLDSVPEKRFPVCQAHGYFCQLIDGLEYLHSQGIVHKDIKPGNLLLTTGGTLKISDLGVAEALHPFAADDTCRTSQGSPAFQPPEIANGLDTFSGFKVDIWSAGVTLYNITTGLYPFEGDNIYKLFENIGKGSYAIPGDCGPPLSDLLKGMLEYEPAKRFSIRQIRQHSWFRKKHPPAEAPVPIPPSPDTKDRWRSMTVVPYLEDLHGADEDEDLFDIEDDIIYTQDFTVPGQVPEEEASHNGQRRGLPKAVCMNGTEAAQLSTKSRAEGRAPNPARKACSASSKIRRLSACKQQ

Variants of: B1
Assay: STK11 functional score (HeLa growth suppression), rescaled enrichment; synonymous median = 1, nonsense median = 0 (normalised score)
Conditions: with HeLa; variant type: missense
In short: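 Functional scores are post/pre-selection log ratios corrected to wild type, rescaled to synonymous and nonsense medians, merged over codons and replicate transfections, and given bootstrapped error. They come from POPCode libraries of codon-optimised STK11 integrated by Bxb1 at an AAVS1 landing pad in HeLa, three regions each transfected three times, with BFP-negative, mCherry-positive integrants sorted by FACS and tiled gDNA amplicons sequenced on NextSeq.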

Variant	STK11 functional score
MEVVDPQQLGMFTEGELMSVGMDTFIHRIDSTEVIYQPRRKRAKLIGKYLMGDLLGEGSYGKVKEVLDSETLCRRAVKILKKKKLRRIPNGEANVKKEIQLLRRLRHKNVIQLVDVLYNEEKQKMYMVMEYCVCGMQEMLDSVPEKRFPVCQAHGYFCQLIDGLEYLHSQRIVHKDIKPGNLLLTTGGTLKISDLGVAEALHPFAADDTCRTSQGSPAFQPPEIANGLDTFSGFKVDIWSAGVTLYNITTGLYPFEGDNIYKLFENIGKGSYAIPGDCGPPLSDLLKGMLEYEPAKRFSIRQIRQHSWFRKKHPPAEAPVPIPPSPDTKDRWRSMTVVPYLEDLHGADEDEDLFDIEDDIIYTQDFTVPGQVPEEEASHNGQRRGLPKAVCMNGTEAAQLSTKSRAEGRAPNPARKACSASSKIRRLSACKQQ [G171R]	1.24 ± 0.38
MEVVDPQQLGMFTEGELMSVGMDTFIHRIDSTEVIYQPRRKRAKLIGKYLMGDLLGEGSYGKVKEVLDSETLCRRAVKILKKKKLRRIPNGEANVKKEIQLLRRLRHKNVIQLVDVLYNEEKQKMYMVMEYCVCGMQEMLDIVPEKRFPVCQAHGYFCQLIDGLEYLHSQGIVHKDIKPGNLLLTTGGTLKISDLGVAEALHPFAADDTCRTSQGSPAFQPPEIANGLDTFSGFKVDIWSAGVTLYNITTGLYPFEGDNIYKLFENIGKGSYAIPGDCGPPLSDLLKGMLEYEPAKRFSIRQIRQHSWFRKKHPPAEAPVPIPPSPDTKDRWRSMTVVPYLEDLHGADEDEDLFDIEDDIIYTQDFTVPGQVPEEEASHNGQRRGLPKAVCMNGTEAAQLSTKSRAEGRAPNPARKACSASSKIRRLSACKQQ [S142I]	0.895 ± 0.26
MEVVDPQQLGMFTEGELMSVGMDTFIHRIDSTEVIYQPRRKRAKLIGKYLMGDLLGEGSYGKVKEVLDSETLCRRAVKILKKKKLRRIPNGEANVKKEIQLLRRLRHKNVIQLVDVLYNEEKQKMYMVMEYCVCGMQEMLDSVPEKRFPVCQAHGYFCQLIDGLEYLHSQGIVHKDIKPGNLLLTTGGTLKISDLGVAEALHPFAADDTCRTSQGSPAFQPPEIANGLDTFSGFKVDIWSAGVTLYNITTGLYPFEGDNIYKLFENIGKGSYAIPGDCMPPLSDLLKGMLEYEPAKRFSIRQIRQHSWFRKKHPPAEAPVPIPPSPDTKDRWRSMTVVPYLEDLHGADEDEDLFDIEDDIIYTQDFTVPGQVPEEEASHNGQRRGLPKAVCMNGTEAAQLSTKSRAEGRAPNPARKACSASSKIRRLSACKQQ [G279M]	0.984 ± 0.61
MEVVDPQQLGMFTEGELMSVGMDTFIHRIDSTEVIYQPRRKRAKLIGKYLMGDLLGEGSYGKVKEVLDSETLCRRAVKILKKKKLRRIPNGEANVKKEIQLLRRLRHKNVIQLVDVLYNEEKQKMYMVMEYCVCGMQEMLDSVPEKRFPVCQAHGYFCQLIDGLEYLHSQGIVHKDIKPGNLLLTTGGTLKISDLGVAEALHPFAADDTCRTSQGSPAFQPPEIANGLDTFSGFKVDIWSAGVTLYNITTGLYPFEGDNIYKLFENIGKGSYAIPGDCGPPLSDLLKGMLEYEPAKRFSIRQIRQHSWFRKKHPPAEAPVPIPPSPDTKDRWRSMTVVPYLEDLHGADEDEDLFDIEDDIIYTQDFTVPGQGPEEEASHNGQRRGLPKAVCMNGTEAAQLSTKSRAEGRAPNPARKACSASSKIRRLSACKQQ [V372G]	1.09 ± 0.47
MEVVDPQQLGMFTEGELMSVGMDTFIHRIDSTEVIYQPRRKRAKLIGKYLMGDLLGEGSYGKVKEVLDSETLCRRAVKILKKKKLRRIPNGEANVKKEIQLLRRLRHKNVIQLVDVLYNEEKQKMYMVMEYCVCGMQEMLDSVPEKRFPVCQAHGYFCQLIDGLEYLHSQGIVHKDIKPGNLLLTTGGTLKISDLGVAEALHPFAADDTCRTSQGSPAFQPPEIANGLDTFSGFKVDIWSAGVTLYNITTGLYPFEGDNIYKLFENIGKGSYAIPGDCGPPLSDLLKGMLEYEPAKRFSIRQIRQHSWFRKKHPPAEAPVPIPPSPDTKDRWRSMTVVPYLEDLHGADEDEDLFDIEDDIIYTQDFTVPGQVPEEEASHNGQRRGLPKAVCMNGTEAVQLSTKSRAEGRAPNPARKACSASSKIRRLSACKQQ [A398V]	1.01 ± 0.2
MEVVDPQQLGMFTEGELMSVGMDTFIHRIDSTEVIYQPRRKRAKLIGKYLMGDLLGEGSYGKVKEVLDSETLCRRAVKILKKKKLRRIPNGEANVKKEIQLLRRLRHKNVIQLVDVLYNEEKQKMYMVMEYCVCGMQEMLDSVPEKRFPVCQAHGYFCQLIDGLEYLHSQGIVHKDIKPGNLLLTTGGTLKISDLGVAEALHPFAADDTCRTSQGSPAFQPPEIANGLDTFSGFKVDIWSAGVTLYNITTGLYPFEGDNIYKLFENIGKGSYAIPGDCGPPLSDLLKGMLEYEPAKRFSIRQIRQHSWFRKKHPPAEAPVNIPPSPDTKDRWRSMTVVPYLEDLHGADEDEDLFDIEDDIIYTQDFTVPGQVPEEEASHNGQRRGLPKAVCMNGTEAAQLSTKSRAEGRAPNPARKACSASSKIRRLSACKQQ [P321N]	1.03 ± 0.51
MEVVDPQQLGMFTEGELMSVGMDTFIHRIDSTEVIYQPRRKRAKLIGKYLMGDLLGEGSYGKVKEVLDSETLCRRAVKILKKKKLRRIPNGEANVKKEIQLLRRLRHKNVIQLVDVLYNEEKQKMYMVMEYCVCGMQEMLDSVMEKRFPVCQAHGYFCQLIDGLEYLHSQGIVHKDIKPGNLLLTTGGTLKISDLGVAEALHPFAADDTCRTSQGSPAFQPPEIANGLDTFSGFKVDIWSAGVTLYNITTGLYPFEGDNIYKLFENIGKGSYAIPGDCGPPLSDLLKGMLEYEPAKRFSIRQIRQHSWFRKKHPPAEAPVPIPPSPDTKDRWRSMTVVPYLEDLHGADEDEDLFDIEDDIIYTQDFTVPGQVPEEEASHNGQRRGLPKAVCMNGTEAAQLSTKSRAEGRAPNPARKACSASSKIRRLSACKQQ [P144M]	1.17 ± 0.64
